Columns and labels:
[1] = biological target: Recombinant full length human HMGB1 (wild type HMGB1) (human); experiment: cell-based or functional assay
[2] = system: RAW 264.7 cells; experiment: TNF release from RAW 264.7 cells, L929 cytotoxicity bioassay; format: cell-based, murine
Experimental: (§1) Murine macrophage-like RAW 264.7 cells (American Type Culture Collection, Rockville, Md.) were cultured in RPMI 1640 medium (Life Technologies, Grand Island N.Y.) supplemented with 10% fetal bovine serum (Gemini, Catabasas, Calif.), penicillin and streptomycin (Life Technologies) and were used at 90% confluence in serum-free Opti-MEM I medium (Life Technologies, Grand Island, N.Y.). […] Polymyxin B was not used in experiments of synthetic peptide studies.
TNF release was measured by a standard murine fibroblast L929 (ATCC, American Type Culture Collection, Rockville, Md.) cytotoxicity bioassay (Bianchi et al., Journal of Experimental Medicine 183:927-936, 1996) with the minimum detectable concentration of 30 pg/ml. […]
The effect of the mutants on TNF release from Murine macrophage-like RAW 264.7 cells (ATCC) was carried out as follows. […] Conditioned supernatants (containing TNF which had been released from the cells) were collected and TNF released from the cells was measured by a standard murine fibroblast L929 (ATCC) cytotoxicity bioassay (Bianchi et al., supra) with the minimum detectable concentration of 30 pg/ml. […]
To further examine the effect of HMGB1 B box on cytokine production, varying amounts of HMGB1 B box were evaluated for the effects on TNF, IL-1, and IL-6 production in murine macrophage-like RAW 264.7 cells. […]

[3] = biological target: RAGE on murine macrophage-like RAW 264.7 cells (mouse (murine RAW 264.7 cells)) (UniProt Q62151); experiment: cell-based or functional assay
[4] = system: Balb/c mice subjected to CLP; experiment: Cecal ligation and puncture (CLP) sepsis, survival of Balb/c mice; format: in vivo, mouse; details: i.p. twice daily for 3 days beginning 24 hours after CLP
Experimental: Cecal ligation and puncture (CLP) was performed as described previously (Fink and Heard, J. Surg. Res. 49:186-196, 1990; Wichmann et al., Crit. Care Med. 26:2078-2086, 1998; and Remick et al., Shock 4:89-95, 1995). Briefly, Balb/c mice were anesthetized with 75 mg/kg ketamine (Fort Dodge, Fort Dodge, Iowa) and 20 mg/kg of xylazine (Bohringer Ingelheim, St. Joseph, Mo.) intramuscularly. A midline incision was performed, and the cecum was isolated. A 6-0 prolene suture ligature was placed at a level 5.0 mm from the cecal tip away from the ileocecal valve.
The ligated cecal stump was then punctured once with a 22-gauge needle, without direct extrusion of stool. The cecum was then placed back into its normal intra-abdominal position. […] Mortality was recorded for up to 1 week after the procedure; survivors were followed for 2 weeks to ensure no late mortalities had occurred.
To determine whether the HMGB1 A box can inhibit the lethality of HMGB1 during sepsis, mice were subjected to cecal perforation and treated by administration of A box beginning 24 hours after the onset of sepsis. […] Survival was monitored twice daily for up to 2 weeks to ensure no late death occurred. […]
Passive immunization of critically ill septic mice with anti-HMGB1 antibodies was also assessed. […] Survival was monitored for 2 weeks. […]

[5] = system: NF-κB-dependent ELAM promoter; experiment: NF-κB dependent ELAM promoter luciferase reporter in RAW 264.7 macrophages; format: cell-based, murine; details: HMGB1 100 ng/ml or B box 10 μg/ml, 5 hours; decreased with MyD 88 dominant negative (FIG. 11B)
Experimental: To examine the effects of HMGB1 or HMGB1 B box on the NF KB dependent ELAM promoter, the following experiment was carried out. RAW 264.7 macrophages were transiently co transfected with an expression plasmid encoding a murine MyD 88 dominant negative (DN) mutant (corresponding to amino acids 146 296), or empty vector, plus a luciferase reporter plasmid under the control of the NF κB dependent ELAM promoter, as described by Means et al. (J. Immunol. 166:4074 4082, 2001). A portion of the cells were then stimulated with full length HMGB1 (100 ng/ml), or purified HMGB1 B box (10 μg/ml), for 5 hours. Cells were then harvested and luciferase activity was measured, using standard methods. All transfections were performed in triplicate, repeated at least three times, and a single representative experiment is shown in FIG. 11B.

[6] = system: C3H/HeJ mice; experiment: Lethality and histology in C3H/HeJ mice; format: in vivo, mouse; details: 8 hours after administration
[7] = system: RAW 264.7 cells; experiment: IL-6 release from RAW 264.7 cells, ELISA; format: cell-based, murine; details: B box 0-10 μg/ml, 8 hours (FIG. 2C)
Experimental: as §1
To further examine the effect of HMGB1 B box on cytokine production, varying amounts of HMGB1 B box were evaluated for the effects on TNF, IL-1, and IL-6 production in murine macrophage-like RAW 264.7 cells. Conditioned media were harvested and measured for TNF, IL-1β and IL-6 levels. TNF levels were measured as described herein, and IL-1β and IL-6 levels were measured using the mouse IL-1β and IL-6 enzyme-linked immunosorbent assay (ELISA) kits (R&D System Inc., Minneapolis, Minn.) and N>5 for all experiments.

Chain of RAGE on murine macrophage-like RAW 264.7 cells (mouse (murine RAW 264.7 cells)) (Q62151 23-402): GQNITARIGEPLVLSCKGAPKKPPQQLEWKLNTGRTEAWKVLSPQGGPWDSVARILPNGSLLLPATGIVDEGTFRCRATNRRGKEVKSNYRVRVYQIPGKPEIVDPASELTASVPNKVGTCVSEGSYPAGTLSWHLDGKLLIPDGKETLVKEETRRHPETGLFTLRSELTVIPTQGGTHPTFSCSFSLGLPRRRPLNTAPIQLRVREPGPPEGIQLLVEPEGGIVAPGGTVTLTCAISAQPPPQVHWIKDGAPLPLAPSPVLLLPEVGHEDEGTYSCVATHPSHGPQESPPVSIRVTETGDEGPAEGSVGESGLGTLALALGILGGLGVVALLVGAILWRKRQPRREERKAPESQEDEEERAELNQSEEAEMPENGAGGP

HMGB1 A box protein (Amino terminus + A box mutant of human HMGB1) (from UniProt A9RA84 1-85)
inhibition of HMGB1 induced TNF release from RAW 264.7 cells (L929 cytotoxicity assay) [1]: 7.5 µg/mL

fkdpnapkrlpsafflfcse (FKDPNAPKRLPSAFFLFCSE; listed as Homo sapiens) [1-20]
TNF release by synthetic B box peptide fragments ([2]; synthetic peptide 10 μg/ml, 10 hours, no polymyxin B (FIG. 3), listed as 1-20-mer): less potent than either the full length synthetic B box (1-74-mer), or full length HMGB1

Recombinant full length human HMGB1 (wild type HMGB1) (from UniProt A9RA84 1-215) (ligand)
decrease of HMG-1 signaling (TNF release from RAW 264.7 cells) by anti-RAGE antibody [3]: 40%

B1: A box: Recombinant human HMGB1 amino terminus + A box mutant, SEQ ID NO:21 (A box SEQ ID NO:22), GST fusion system (protein, listed as Homo sapiens)
chain: MGKGDPKKPTGKMSSYAFFVQTCREEHKKKHPDASVNFSEFSKKCSERWKTMSAKEKGKFEDMAKADKARYEREMKTYIPPKGET
modifications: GST fusion
clinical condition of animals ([4]; 60 μg/mouse): most died
clinical condition of animals ([4]; 600 μg/mouse): significantly more alert, active, and to resume feeding behavior

B2: HMGB1: Recombinant full length human HMGB1, SEQ ID NO:18; recombinant rat HMGB1 used in some experiments (protein, listed as Homo sapiens)
chain: MGKGDPKKPTGKMSSYAFFVQTCREEHKKKHPDASVNFSEFSKKCSERWKTMSAKEKGKFEDMAKADKARYEREMKTYIPPKGETKKKFKDPNAPKRLPSAFFLFCSEYRPKIKGEHPGLSIGDVAKKLGEMWNNTAADDKQPYEKKAAKLKEKYEKDIAAYRAKGKPDAAKKGVVKAEKSKKKKEEEEDEEDEEDEEEEEDEEDEEDEEEDDDDE
luciferase activity (NF-κB dependent ELAM promoter) [5]: stimulated luciferase activity

B3: B box: Recombinant human HMGB1 B box mutant polypeptide, SEQ ID NO:20, expressed with a GST gene fusion system in E. coli (protein, listed as Homo sapiens)
chain: FKDPNAPKRLPSAFFLFCSEYRPKIKGEHPGLSIGDVAKKLGEMWNNTAADDKQPYEKKAAKLKEKYEKDIAAY
modifications: GST fusion
TNF protein expression over time versus medium only ([2]; 10 μg/ml, 0-48 hours (FIGS. 2E, 2F)): stimulated TNF protein expression
histology of heart [6]: evidence of ischemia with loss of cross striation associated with amorphous pink cytoplasm in myocardial fibers
histology of liver [6]: mild acute inflammatory responses, with some hepatocyte dropout and apoptosis, and occasional polymorphonuclear leukocytes
IL-6 release, dose response [7]: increased with increased amounts of B box
